Measurements reported in article PMC3257281.

Experiments:
[1] = target: rabbit intestinal mucin (rabbit); experiment: ELISA
[2] = target: rabbit intestinal mucin (rabbit)
[3] = target: rabbit intestinal mucin (rabbit); experiment: binding to mucin-coupled Sepharose resin, Scatchard plot; rabbit mucin coupled to NHS-activated sepharose; different amounts of GbpA protein added to 400 µl resin, 2 h, room temperature; unbound protein measured after centrifugation; Kd from bound vs. bound/free
[4] = target: rabbit intestinal mucin (rabbit); experiment: binding to mucin-coupled Sepharose resin, Scatchard plot

Substance | Kd [1] [µM] | inhibition of binding of biotinylated wild type V. cholerae N16961 to mucin-coated wells pre-treated with increasing concentrations of the protein; value at saturation [2] [%] | Kd [3] [µM] | Kd [4] [µM]
GbpAD1, GbpA domain 1 (residues 24-203) (from UniProt Q9KLD5 24-203) (domain or fragment) | 8.7 | – | – | –
GbpA(Y61A), full length GbpA with tyrosine 61 changed to alanine (from UniProt Q9KLD5 24-485) (natural protein) | 14.7 | 83 | 14.1 | –
GbpAfl, mature full-length GlcNAc binding protein A (residues 24-485) (from UniProt Q9KLD5 24-485) (natural protein) | 7.8 | 83 | – | 9.4
GbpAD3, GbpA domain 3 (domain or fragment) | 76.4 | – | – | –
GbpA_(D1–3), GbpA domains 1 to 3 (residues 24-414) (from UniProt Q9KLD5 24-414) (domain or fragment) | 13.2 | – | 12.5 | –
